Measurements reported in patent US20190218304A1 (INNATE PHARMA, published 2019).
Residue numbers refer to the chain shown, from its start.

What was measured:
Human CD39-L4 = target: T1, Human CD39-L4 (human, UniProt O75356 25-428); experiment: ELISA on coated recombinant human CD39-L4 [panel huCD39 L4]
T1 construct: Recombinant protein coated in ELISA; also called NTPDase5; ENTPD5
T1 sequence: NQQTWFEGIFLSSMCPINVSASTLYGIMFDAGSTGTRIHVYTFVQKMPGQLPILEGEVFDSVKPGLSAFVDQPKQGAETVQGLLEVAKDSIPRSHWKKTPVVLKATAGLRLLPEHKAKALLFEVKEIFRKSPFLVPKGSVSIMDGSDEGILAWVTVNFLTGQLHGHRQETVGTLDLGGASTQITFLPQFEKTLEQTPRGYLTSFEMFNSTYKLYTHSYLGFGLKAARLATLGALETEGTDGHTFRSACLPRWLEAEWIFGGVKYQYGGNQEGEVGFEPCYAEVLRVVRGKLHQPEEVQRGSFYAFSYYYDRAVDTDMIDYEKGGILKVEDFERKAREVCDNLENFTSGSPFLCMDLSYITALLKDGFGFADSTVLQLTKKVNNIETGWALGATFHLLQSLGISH
Experimental: (§1) Wells were washed in TBS Tween 20, and further saturated 2H at RT in TBS Blocking buffer. Dose range concentration of primary antibody was incubated in TBS blocking buffer for 2 h at RT. Wells were washed in TBS Tween 20. […] Optical density was measured on Enspire™ at OD=450.

[1] = target: T2, human CD39 expressed on cells (human, UniProt P49961 1-510); experiment: flow cytometry titration on Ramos lymphoma cells, first experiment; Ramos cells, first set of experiments
T2 construct: On CHO transfectants, HEK-293T transfectants (wild type), Ramos lymphoma cells or monocyte-derived dendritic cells, as named under assay; also called huCD39; CHO-huCD39
T2 sequence: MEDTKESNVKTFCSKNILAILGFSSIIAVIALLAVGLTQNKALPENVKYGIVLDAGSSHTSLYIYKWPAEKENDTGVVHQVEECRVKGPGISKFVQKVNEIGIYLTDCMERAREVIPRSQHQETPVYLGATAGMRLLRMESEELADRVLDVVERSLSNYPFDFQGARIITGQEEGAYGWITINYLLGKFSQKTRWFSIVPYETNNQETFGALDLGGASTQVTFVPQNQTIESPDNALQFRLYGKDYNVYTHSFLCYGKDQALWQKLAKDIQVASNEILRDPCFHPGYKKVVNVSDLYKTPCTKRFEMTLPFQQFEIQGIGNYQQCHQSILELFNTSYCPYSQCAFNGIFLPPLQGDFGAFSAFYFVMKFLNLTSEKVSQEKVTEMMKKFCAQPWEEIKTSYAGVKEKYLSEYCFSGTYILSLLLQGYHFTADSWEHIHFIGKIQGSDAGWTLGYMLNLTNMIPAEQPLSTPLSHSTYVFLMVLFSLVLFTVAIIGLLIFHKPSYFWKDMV
Experimental: (§2) Cells were incubated with various concentration of unlabeled anti-CD39 antibody from 30 μg/ml to 5×10⁻⁴ μg/ml, for 30 minutes at 4° C. After washes, cells were incubated with Goat anti-mouse H+L labeled secondary antibody for 30 min at 4° C.

[2] = target: T2, human CD39 expressed on cells; experiment: flow cytometry on Hek-293T cells transfected with wild-type CD39 (unstained cells, US: 10,3) [panel WT]
CD39 mutant 19 = target: T3, CD39 mutant 19 (human, UniProt P49961 1-510); experiment: flow cytometry on Hek-293T cells transfected with CD39 mutant 19 [panel M19]
T3 construct: Expressed on transfected Hek-293T cells; also called M19
T3 chain: T2 sequence with R138A, M139A, E142K

[3] = target: T2, human CD39 expressed on cells; experiment: flow cytometry titration on Ramos lymphoma cells, second experiment; Ramos cells, second set of experiments
Experimental: as §2

Human CD39-L3 = target: T4, Human CD39-L3 (human, UniProt O75355 44-485, limits assumed); experiment: ELISA on coated recombinant human CD39-L3 [panel huCD39 L3]
T4 construct: Recombinant protein coated in ELISA; also called NTPDase3; ENTPD3
T4 sequence: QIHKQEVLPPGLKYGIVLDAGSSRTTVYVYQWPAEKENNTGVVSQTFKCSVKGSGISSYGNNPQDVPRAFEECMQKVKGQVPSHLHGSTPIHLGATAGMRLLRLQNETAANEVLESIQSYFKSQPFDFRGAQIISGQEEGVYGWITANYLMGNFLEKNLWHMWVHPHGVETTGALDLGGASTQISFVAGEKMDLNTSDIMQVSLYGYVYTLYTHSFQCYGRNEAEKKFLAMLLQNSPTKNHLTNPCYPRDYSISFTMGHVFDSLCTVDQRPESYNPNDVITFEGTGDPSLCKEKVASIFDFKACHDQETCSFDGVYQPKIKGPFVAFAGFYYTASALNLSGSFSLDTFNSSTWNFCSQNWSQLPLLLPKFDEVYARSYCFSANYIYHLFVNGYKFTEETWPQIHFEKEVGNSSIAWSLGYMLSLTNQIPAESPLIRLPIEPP
Experimental: as §1

B1: antibody I-394 (antibody, human IgG1, kappa, V domains shown)
VH: EVQLQQSGPELVKPGASVKMSCKASGYTFTDYNMHWVKQSHGRTLEWIGYIVPLNGGSTFNQKFKGRATLTVNTSSRTAYMELRSLTSEDSAAYYCARGGTRFAYWGQGTLVTVSA
VL: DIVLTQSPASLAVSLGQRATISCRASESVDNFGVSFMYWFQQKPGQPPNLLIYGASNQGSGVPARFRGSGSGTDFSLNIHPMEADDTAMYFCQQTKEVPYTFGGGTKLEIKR
notes: The hybridoma-derived mouse form was used in early screening
In the case of B1, the binding result (Human CD39-L4) is reported as “no binding”, the EC50 [1] is reported as 0.16 µg/mL and the “Median : Comp-Alexa Fluor 647-A” value [2] is reported as 3720. For the same binder, the binding result (CD39 mutant 19) was “no binding”, the EC50 [3] was 0.19 µg/mL and the binding result (Human CD39-L3) was “no binding”.
